Reference: the nanobody polyreactivity screen of Harvey et al. (2022)

Experiment: yeast display, Sf9 membrane polyspecificity reagent, FACS + sequencing; frameworks hold sequencing errors
In short: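 Synthetic nanobody libraries on Saccharomyces cerevisiae BJ5465 were galactose-induced for 36–48 hours, stained 1 hour at 4 °C with 10% biotinylated, detergent-solubilized Sf9 membrane reagent and enriched on streptavidin microbeads. FACS then separated cells into low and high (top ~1%) gates by anti-HA (expression) and streptavidin (reagent binding) fluorescence. Genes were colony-PCR amplified, MiSeq 2 × 250 sequenced and CDR-length filtered. A clone's polyreactivity label is that of its gate of origin.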

Row | Sequence | polyreactivity (PSR sort gate)
1 | QVQLVESGGGLVQAGGSLRLSCAASGSTFGQYVMGWYRQAPGKERELVAAITYSGGSTYYADSVKGRFTISRDNAKNTVYLQMNSLKPEDTAVYYCAARGRRDGYSRVPRGYWGQGTQVTVSS | high polyreactivity
2 | QVQLVESGGGLVQAGGSLRLRCAASGFIFARYAMGWYRQAPGKERELVASITCRGTSTRYADSVKGRFTISRDNAKNTVYLEMNSLKPEDTAVYYCNAARLSYSWVPSEMDFWGQGTQVTVSS | high polyreactivity
3 | QVQLVESGGGLVQAGGSLRLSCAASGFTFVINDMGWYRQAPGKERELVADITSGGDKYYADSVKGRFTISRDNAKNTVYLQMISLKPEDTAVYYCARDNERDYYTYPYDYWGQGTQVTVSS | low polyreactivity
4 | QVQLVESGGGLVHAGGRLRLSCAASGSMFYPYAMGWYRQAPGKERELVAAISRSGGSTRYADSVKGRFTISRDHAQNTVYLQMNSLKPEDTAVYYCAVRVFYGVGLIGYYYWGQGSQVTVSS | high polyreactivity
5 | QVQLEESGGGLVQAGGSLRLSCAASGSIFNRYAMGWYRQAPGKEWELVAAISRSGGRTYYADSVKGRFTISRDNAKNTVYLQMNSLKPEDTAVYYCAADKYYRQHEYDYLGQGTQVTVSS | high polyreactivity
6 | QVQLVESGGGLLQAGGSLRLSCAASGSTFDSYAMGWYRQAPGKERELVAAITNGGSTYYADSVKGRFTISRDNAKNTVYLQMNSLKPEDTAVYYCATDDYLLDYLYDYWGQGTQVTVSS | low polyreactivity
7 | QVQLVESGGGLVQAGGSLRLSCAASGSIFPSNAMGWYRQAPGKERELVAAINRDGISNYADSVKGRFTISRDNAKNTVYLQMNSLKPEDTAVYYCAAEFAWQWWEYGYWGQGTQVTVSS | low polyreactivity
8 | QVQLVESGGGLVQAGGSLRLSCAASGFTIWRYAMGWYRQAPGKERELVAAISWRGGSTYYADSVKGRFTISRDNAKNTVYLQMNSLKPEDTAVYYCAAAYNLPPGYDYWGLGTQVTVSS | high polyreactivity
9 | QVQLVESGGGLVQAGGSLRLSCAASGSTLGPYAMGWYRQAPGKERELVATINSSGSTNYADSVKGRFTISRDNAKNPVYLQMNSLKPEDTAVYYCATLHYYYWYDYWGQGTQVTVSS | low polyreactivity
10 | QVQLVESGGGLVQAGGSLRLSCAASGFIFTQYAMGWYRQAPGKERELVAGITSSGNTYYADSVKGRFTISRDNAKNPVYLQMNSLKPEDTAVYYCAARSASRRMDYWGQGTQVTVSS | high polyreactivity
11 | QVHLVESGGGLVQAGGSLRLSCAASGFTFYKYVMGWYRQAPGKERELVAAITTSGGSTYYADSVKGRFTISRDNAKNTVYLQMNSLKPEDTAVYYCNARSLHTSEGDYWGQGTQVTVSS | low polyreactivity
12 | QVQLVESGGGLVQAGGSLRLSCAASGNIFRRYAMGWYRQAPGKDRELVAAISISGGNTYYADSVKGRFTISRDNAKNTVYLQMNSLKREDTAVYYCNARLRWYPGYDYWGQGTQVTVSS | high polyreactivity
13 | QVQLVESGGGLVQAGGSLRLSCAASGSLFERYAMGWNRQAPGKEREFVATITSGGGRTYYADSVKGRFTISRDNAKNTVYLQMNSLKPEDTAVYYCNAVYRARSYDYWGQGTQVTVSS | high polyreactivity
14 | QVQLVESGGGLVQAGGSLRLSCAASGRTLWLYTMGWYRQATGKERELVARSRSGGSTYYADSVKGRFTISRDNAKNTVYLQMNSLKPEDTAVYYCAAFPYWIHYEHYYWGQGTQVTVSS | high polyreactivity
15 | QVQLVESGGGLVQAGGSLRLSCDASGSTFPKYAMGWYRQAHGKERELVAAITSSGGRTFYADSVKGRFTISRDNAKNTVYLQMNSLKPEDTAVYYCAAYYYSWSGAFIYDYWGQGTQVTVSS | high polyreactivity
16 | QVQLVESGGGLVQAGGSLRLSCAASGLTFSGYVMGWYRQAPGKERELVAAISSSGGRTYYADSVKGRFTISRDNAKNTVYLQMNSLKPEDTAVYYCAARNKYGGYPYGYDYWGQGTQVTVSS | high polyreactivity
17 | QVQLVESGGCLFQAGGSLRLSCAASGNIFLYYAMGWYRQAPGKERELVADIDSSGASTYYADSVKGRFTISRDNAKNTGYLQMNSLIPEDTAVYDCDKDSNRYSYYSPYDSWGQGTQVTVSS | low polyreactivity
18 | QVQLLESGGGLVQAGGSLRLSCAASGSIFYLYAMGWYIQAPGKERELVAVIRRGGSTKYADSVKGRFTISRDNSKNSVYLQMNSLKPEDTAVYDCNVVGYAYGWQYDYWGQGTQVNVSS | high polyreactivity
19 | QVQLVESGVGLVQAGGSLRLSCAASGSIFASYTMGWYIQAPGKERELVAAINRSGGSTYYADSVKGRFTISRDNAKNTVYFQMNSLKPDDTAVYYCAAGYIRRYYGYDYWGQGTQVTVSS | high polyreactivity
20 | QVQLVESGGGLVQAGGSLRLSCAASGSTFYLYAMGWYRQAPGKEREFVAAISWSGGRTYYADSVKGRFTISRDNAKNTVYLQMNSLKPEYTAVYYCAARRRYTWQYTRYDMGYWGQGTQVTVSS | low polyreactivity
21 | QVQIVESGGGLVQAGGSLRLSCAASGSTFTLNAMGWYRQAPGKERELVADISWSSGRTYYADSVKGRFTISRDNAKNTVYLQMNSLKPEDTAVYYCAARLPFEHVDYWGQGTQVTVSS | low polyreactivity
22 | QVQLVESGGGLVQAGGSLRLRCAASGNIFDRYAMGWYRQAPGKERELVAAISWSDGTTYYADSVKGRFTISRDNAKNTVYLQMNTLKPEDTAVYNCAGVYTYPLGYYHYTYDDWGQGTQVSVSS | low polyreactivity

Row | Sequence | polyreactivity (PSR sort gate)
23 | QVQLVESGGGLVQAGGSLRLSCAASGSIVVKYDMSWYRQAPGKERELVAAISGSGGSTYYADSVKGRFTISRDNAKNTVYLQMNSVKPEDTAVYYCAADDYFYSGRYGFEYWGQGTQVTVSS | low polyreactivity
24 | QVQLVESGGGLVQAGGSLRLSCAASGFTFYHYAMGWYRQAPGKERELGAAISRSGGSTYYADSVKGRFTISRDNAKNTVYLQMNSLKPEDTAVYYCAKVLRAKNSFDYWGQGTQVTVSS | high polyreactivity
25 | QVQLVESGGGLVQAGGSLRFSCAACGSIFEFYALGWSSQAPGKERELVAAITWDDGSTYYADSVKGRFTISRDNATNTVYLQMNSLTPEDTAVYYCAADTYITSDLYVYAYYYWGQGTQVTVSS | low polyreactivity
26 | QVQLVESGGGLVQAGGSLRLSCAASGFIFSYAMGWYRQAPGKERELVAAISKSGGRTYYADSVKGRFTISRDNAKNTVYLQMNSLIPEDTAVYYCAVRDLHLSNARYNYWGQGSQVTVSS | high polyreactivity
27 | QVQLLESGGGLVQAGGSLRLSCAASGAIFFIYVMGWYRQAPGKERELVAAISGSGGPTYYADSVKVRFTISRDNAKNTVFLQMNRLKPEDTAVYYCAARGYRGRMGYWGQGTQVTVSS | low polyreactivity
28 | QVQLVESGGGLVQAGRSLRLICAASGFTFYSYAMGWYRQAPGKERELVANITIGGSTYADSVKGRFTISRDNAKNTVYLQMNSLKPEDTAVYYCARGYRVVGDPLYGDYDYWGQGTQVTVSS | low polyreactivity
29 | QVQLVESGGGLVQAGGSLRLSCAASGSTFGYNAMGWYRQAPGKERELVATITSTGGGTYYADSVKGRFTISRDNAKNTVYLQMNSLKPEDTAVYYCAAVYYSLDYVHGYPPHYDYWGQGTQVTVSS | low polyreactivity
30 | QVQLVESGGGLVQAGGSLRLSCAASGSIFGYYTMGLYRQAPGKERELVATINWSGGSTYYADSVKGRFTISRDNAKNTVYLQMNSLKPEDTAVYYCAKTRPYLRYWDSSTYDYWGQGTQVTVSS | high polyreactivity
31 | QVQLVESGGGLVQAGGRLRLSCAASGIIFGTYAMGWYRPAPGQERELVAAINTGGTTYYADSVKGRFTISRDNAKNTVYLQMNSLKPEDTAVYYCAAEFTRYRYYYHKRPMDYWGQGTQVTVSS | low polyreactivity
32 | QVQLVESGGGLVQAGGSLRLSCAASGRTFVYNAKGWYRQAPGKEREVVAGITGSGDSTYYADSVKGRFTISRDNAKNTVYLQMNSLKPEDTAVYYCNQLVEEDYWGQGTQVTVSS | low polyreactivity
33 | QVQLVESGGGLVQAGGSLSLSCAASGSTFAFYAMGCYRQAPGKERDLVAASTRSAGSTYYADSVKGRFTISRDNATTTVYLPMNSLKREDTAVYYCAKYVSYSRTLYDYWGQGTQVTVSS | low polyreactivity
34 | QVQLVESGGGLVQAGGSLRLSCAASGIIFSSYAMGWYRQAPGKERELVAAISLSGGSTYYADSVKGRFTISRDNAKNTVYLQMNSLKPEDTAVFYCNTVRQRARFTKVDYWGQGTQVTVSS | high polyreactivity
35 | QVQLVESGGGLVQAGGSLRLSCAASGITFVWNAMGWYRQAPGKERELVATISRGGVRTYYADSVKGRFTISRDNAKNTVYLQMNSLKPEDTAVYYCAADGSYVHWEYGYWGQGTQGTVSS | low polyreactivity
36 | QVQLVESGGGLVQAGGSLRLSCASSGRIFNRYAMGWYRQAPGKERELVAAISSRGGSTYYADSVKGRFTISRDNAKNTVYLPMNSLKPEDTAVYYCAASAQKASYDWRYDYWGQGTQVTVSS | high polyreactivity
37 | QVQLVESGGGLVQAGGSLRLSCASSGRIFSNYAMGWYRQAPGKERELVAAISWRTSNTYYADSVKGRFTISRDNAKYTVYLQMNSQKPEDTAVYYCAKYRRFRPYGSNGIYDYWGQGTQVSVSS | high polyreactivity
38 | QVQLVESGGGLVQAGGSLRLSCAASGSTIRKNALGWSRQAPGKEREWVADIRRGGGTNYADSVKGRFTISRDNAKNTVYLQMNSLKPEDTAVYSCNTDILYYGRSKAPFYYCGQGTQVTVSS | high polyreactivity
39 | QVQLVESGGGLVQAGGSLRLSCAASGRIFPYNAMGWYRQAPGKERELVAAISGRGGSTYYADSVKGRFTISRDNAKNTVYLQMNSLKPEDTAVYYCAKRYVYPGAKHRFRGYDYWGQGTQVTVSS | high polyreactivity
40 | QVQLVESGGGLVQAGGSLRISCAASGLTSPIYAMGWYRQAPGKERELDAAISKNGGSTYYADSVKGRFTISRDNAKNTVYVQMNSLKPEDTAVYYCNAVVYHYTLDHEYDYWGQGTQVTVSS | high polyreactivity
41 | QVQLVESGGGLVQAGGSLRLSCAASGRTFYRNTMGWYRQAPGKERELVAAITRSGGSTYYADSVKGRVTISRDNAKNTVYLQMNSLKPEDTAVYYCAASRTYYAPYGYWGQGTQVTVSS | high polyreactivity
42 | QVQLVESGGGLVQAGGSLRLSCAASGSTFYIYVMGWYRQAPGKERELVATITWGGVSTYYADSVKGRFTISRDNAKNTVYLQMNSLKTEDTAVYYCATRGKSHGQQFNYWGQGTQVTVSS | high polyreactivity
43 | QVQLVESGGGLVQAGGSLRLSCAASGRTFWSYAMGWYRQAPGKVRELVAAITSSGGTTNYADSVKGRFTISRDNAKNTVYLQMNSLKPEDTAVYYCAADNGGAGYYYGYVWYDYWGQGTQVTVSS | low polyreactivity
